Reference: patent US20200239597A1, “AN ANTI-APOPTOTIC FUNCTION OF PKM2 AND INTRACELLULARLY EXPRESSED SCFV ANTIBODIES” (La Jolla Institute for Allergy and Immunology, priority 2017, published 2020)

Assays:
293T cells [1] = experiment: Rescue of 293T cells from BimS-induced apoptosis (cell viability); assay type: cell-based, human
Experimental: Human BimS cDNA was subcloned into a pShooter™ mammalian expression vector (pCMV/myc/cyto; Invitrogen), to allow the expression of BimS driven by a CMV promoter. […] 293T cells were then infected with the intrabody library and then transfected with 4 μg/ml BimS plasmid, using 10 l of Lipofectamine® 2000 transfection reagent (Thermo Fisher). After 24 h post-infection, the culture medium was replaced with fresh MEMc medium supplemented with 10% FBS and penicillin/streptomycin (Gibco-Invitrogen).
(§1) Cell viability was measured with a Countess™ Automated Cell Counter (Invitrogen) using trypan blue. For the clonogenic survival assay, 293T or MEFs cells were seeded in 6-well plates at 1×10^5 cells/well in a 2-ml volume, transfected with BimS cDNA and incubated for 24 h. Afterwards, the medium was replaced and the cells cultured for 3-4 days. Thereafter, the plates were rinsed with PBS and fixed and stained with a solution containing crystal violet (0.5% w/v) and glutaraldehyde (6% v/v) as described (Franken et al., 2006).

293T cells [2] = experiment: Clonogenic survival assay after BimS transfection, 293T cells; assay type: cell-based, human; conditions: 293T cells
Experimental: Control 293T or IB5-expressing cells were incubated with or without 27 µg/ml TEPP-46 for 3 h, then transfected with BimS cDNA in a further 24-h incubation also including TEPP-46 or vehicle. The plates were fixed and stained with crystal violet after 1 week. The total area of colonies (a measure of the total mass of proliferating cells) formed in each well from were quantified using ImageJ software; mean±SEM are shown from 3 independent experiments.
as §1

HCT116 cells = experiment: Clonogenic rescue from BimS-induced death, HCT116; assay type: cell-based
[3] = test system: mouse embryonic fibroblasts (MEFs); experiment: BimS-induced death in MEFs (WT, PKM2-deficient, reconstituted), surviving cells counted; assay type: cell-based
Experimental: Wild type (WT) mouse embryonic fibroblasts (MEFs), PKM2-deficient MEFs, or PKM2-deficient MEFs reconstituted with WT or mutant PKIM2 cDNA, were infected or not with IB5, then later transfected with BimS expression plasmid. Surviving cells were counted 48 h afterwards.
as §1

HCT116 and U2OS cells = experiment: Clonogenic survival with etoposide or staurosporine; assay type: cell-based; conditions: 150 nM etoposide
Experimental: 5×10^5 HCT116 and U2OS cells were plated and transfected with BimS expression plasmid including 150 nM etoposide or 1 μM Staurosporine. The plates were fixed and stained with crystal violet after 5 days and the total areas of colonies were measured. Mean, SD and P values were calculated from 3 individual plates.

PKM2 (K270M) = target: T1, PKM2 (K270M) (Homo sapiens, UniProt P14618, K270M); experiment: Blue native gel electrophoresis, PKM2 (K270M); assay type: binding; conditions: not shown
T1 construct: His (N); made in house; host or cells: Escherichia coli BL21(DE3)
T1 sequence (P14618 whole entry K270M): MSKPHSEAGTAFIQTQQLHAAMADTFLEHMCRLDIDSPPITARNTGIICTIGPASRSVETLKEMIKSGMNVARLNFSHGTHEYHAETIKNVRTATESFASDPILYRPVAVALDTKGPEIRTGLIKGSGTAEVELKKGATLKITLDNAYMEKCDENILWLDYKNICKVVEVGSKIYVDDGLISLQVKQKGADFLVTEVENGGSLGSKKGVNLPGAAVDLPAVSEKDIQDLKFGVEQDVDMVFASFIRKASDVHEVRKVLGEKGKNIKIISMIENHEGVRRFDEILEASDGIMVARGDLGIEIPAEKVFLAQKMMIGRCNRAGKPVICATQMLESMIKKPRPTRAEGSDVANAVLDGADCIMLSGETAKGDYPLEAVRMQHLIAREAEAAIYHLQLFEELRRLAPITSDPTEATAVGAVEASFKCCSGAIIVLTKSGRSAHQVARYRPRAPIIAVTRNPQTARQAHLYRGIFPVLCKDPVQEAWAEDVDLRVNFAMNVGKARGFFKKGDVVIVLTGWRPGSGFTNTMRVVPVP
From the text: To begin to define the aspects of PKM2 function required for the IB5-induced anti-apoptotic effect, the present inventors reconstituted PKM2-null MEFs with WT or mutant forms of PKM2. The present inventors first analyzed the K270M mutation, reported to be catalytically dead (Bollenbach et al., 1999; Dombrauckas et al., 2005; Luo et al., 2011).

[4] = test system: mitochondria isolated from 293T cells; experiment: Mitochondria isolation and cytochrome c release assay (MOMP induced by cleaved Bid); assay type: cell-based, human; conditions: mitochondria from IB5-expressing 293T cells, 30 min at 37° C.
Experimental: Control (top) or Intrabody-expressing (bottom) 293T cells were collected and the mitochondrial fraction was isolated by differential centrifugation. To induce MOMP, recombinant cBid protein was added at the indicated concentrations. After incubation for 30 min at 37° C., samples were centrifuged, and cytochrome c (cyt c) content in mitochondrial pellet fractions was analyzed by immunoblot. A representative of three independent experiments is shown. Right panel: densitometric quantification of average cytochrome c content ±SEM from three independent experiments.
Mitochondria were isolated from 5×10^8 cells as described (Waterhouse et al., 2001). The freshly isolated mitochondria ([…]) were then incubated with recombinant cleaved Bid protein (Kuwana et al., 2002) at the indicated concentrations in the presence or absence of purified scFv #5. After incubation for 30 min at 37° C., mitochondria were collected by centrifugation at 10 000×g and analyzed by immunoblotting as described (Waterhouse et al., 2001).

Bcl-2 family proteins = experiment: Immunoblots of Bcl-2 family proteins; assay type: cell-based, human; conditions: alone or in combination; TEPP-46 27 μM
Experimental: Levels of several Bcl-2 family proteins were unchanged following IB5 expression or incubation with TEPP-46, or both. Cell lysates from 293T cells infected with and without IB5 and incubated with and without TEPP-46 (27 μM) were separated on SDS-12% polyacrylamide gels. Bcl-2 family proteins were detected by immunoblotting. The bands were quantified using ImageJ and normalized to the control cell lysate on the leftmost lane.
293T cells were washed with PBS and lysed with PBS containing 1% NP-40. Protein concentration was determined using Pierce™ BCA reagent (ThermoFisher; 23221, 23224). 35 μg protein was loaded in each lane of 12% SDS-PAGE gels. Proteins were transferred to nitrocellulose membrane and immunoblotted with the following primary antibodies: anti-Bax antibody (Santa Cruz N20), anti-Bak antibody (Cell Signaling 3814), anti-Bid antibody (R&D Systems AF860), anti-Bim antibody (Sigma B7929), anti-Puma antibody (Cell Signaling 4976), anti-Bcl-2 antibody (Abcam 32124), anti-Bcl-xL antibody (Cell Signaling 2764) and anti-Mcl-1 (Santa Cruz S19) at 1:1000 dilution. The secondary anti-rabbit and mouse antibodies, conjugated with HRP, were obtained from Santa Cruz and were used at 1:2000 dilution. The luminescence signal was detected using ECL reagent (ThermoFisher 32106).

[5] = test system: PKM2-deficient MEFs reconstituted with WT PKM2; experiment: Mitochondrial length by fluorescence microscopy (Tom20 staining); assay type: cell-based, mouse; conditions: PKM2-null MEFs reconstituted with WT PKM2
From the text: IB5 expression with WT PKM2 increased mitochondrial length, and PKM2 (K422R) expression increased mitochondrial length even in the absence of IB5. PKM2-deficient MEFs reconstituted with WT PKIM2 or PKM2(K422R) cDNA, were infected or not with IB5 lentivirus. […] Mitochondria were visualized by fluorescence microscopy after staining with Tom20 antibodies. Representative confocal images are shown.
Cells were analyzed 3 d after transfection with the indicated cDNA constructs (mean±s.e.m. of 3-5 experiments of 120-200 random selected cells.

B1: IB5: intracellularly expressed single-chain antibody (scFv) specific for PKM2, SEQ ID NO: 2; also made as monovalent recombinant scFv in E. coli (protein)
scFv: MAQVQLVETGPGLVKPSETLSLRCTVSGGSFDNYYWNWIRQPPGKGLEYIGYVFPSTGATNYNPSLGSRVTISLDTSKNQFSLTLTSVTTADTAIYYCVRSGHDLWTGSTWFDPWGQWTTVTVSSGGGGSGGGGSGGGGSEIVLTQSPGTLSLSPGERATLSCRASQSVSSSYLAWYQQKPGQAPRLLIYGASSRATGIPDRFSGSGSGTDFTLTISRLEPEDIAVYYCQQRSNWPRTFGQGTKVEIKRGLGGLASVDYKDDDDK
modifications: artificial intrabody clone 5
notes: also made as monovalent recombinant scFv in E. coli
- percentage of 293T cells rescued from BimS-induced death (293T cells [1]; single intrabody expressed from lentivirus, BimS cDNA transfection): 15-20%
- survival effect when expressed with a weaker promoter (293T cells [1]; weaker promoter, not shown): reduced
- clonogenic survival despite BimS expression (293T cells [2]): produced clonogenic survival
- protection from BimS-induced apoptosis (clonogenicity) (HCT116 cells): substantially protected
- rescue from BimS-induced killing ([3]; PKM2-deficient MEFs): entirely abrogated
- cell rescue after reconstitution ([3]; PKM2-null MEFs reconstituted with PKM2 (K270M)): failed to support IB5-induced cell rescue
- cytoprotective ability after reconstitution ([3]; PKM2-null MEFs reconstituted with WT PKM2 cDNA): restored the cytoprotective ability of IB5
- rescue from BimS-induced killing ([3]; WT MEFs): rescued a percentage of the WT cells
- numbers of viable cells ([3]; early-passage MEFs reconstituted with PKM2 (K422R)): further increased viability
- clonogenic survival in cells treated with etoposide (HCT116 and U2OS cells): promoted clonogenic survival
- stable tetramer formation of PKM2 (K270M) (PKM2 (K270M)): prevented the protein from forming stable tetramers
- resistance of mitochondria to MOMP induced by cleaved Bid protein [4]: reproducibly more resistant than control mitochondria to MOMP
- levels of Bax, Bak, Bid, Bim, Puma, Bcl-2, Bcl-xL and Mcl-1 (Bcl-2 family proteins): failed to change the mitochondrial levels
- average mitochondrial length [5]: increased the average mitochondrial length
